# Measurements published in the supplement of paper PMC9112550, “Optimization of the antimicrobial peptide Bac7 by deep mutational scanning” (BMC Biology, 2022).
# Test system: Escherichia coli TOP10
# Test: shrunken log2 fold change of peptide-encoding DNA abundance (4.5 h post-induction vs induction); higher = less antimicrobial activity (less host growth inhibition)
# Details: time post-induction: 4.5 h; library: site-saturation at positions 5, 18, 19, 20
# 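Also: peptides expressed intracellularly from a pBAD plasmid library in pooled LB shake-flask culture, induced with 0.3% L-arabinose, DNA abundance read by NGS, three biological replicates, DESeq2 with apeglm shrinkage.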
row,Sequence,shrunken log2 fold change
1,RRIRLRPPRLPRPRPRPFRMPRP,-0.0132
2,RRIRKRPPRLPRPRPRPRTMPRP,0.179
3,RRIRTRPPRLPRPRPRPDRIPRP,0.00097
4,RRIRFRPPRLPRPRPRPILSPRP,-0.101
5,RRIRCRPPRLPRPRPRPQVHPRP,-0.233
6,RRIRDRPPRLPRPRPRPHQVPRP,-0.00776
7,RRIRERPPRLPRPRPRPTRKPRP,0.0197
8,RRIRLRPPRLPRPRPRPNMNPRP,-0.68
9,RRIRPRPPRLPRPRPRPIMHPRP,-0.0526
10,RRIRKRPPRLPRPRPRPYVWPRP,-0.36
11,RRIRARPPRLPRPRPRPLFRPRP,0.881
12,RRIRPRPPRLPRPRPRPMFYPRP,-0.449
13,RRIRFRPPRLPRPRPRPGTPPRP,0.292
14,RRIRCRPPRLPRPRPRPPHNPRP,0.919
15,RRIRGRPPRLPRPRPRPQWMPRP,0.115
16,RRIRHRPPRLPRPRPRPELCPRP,-0.135
17,RRIRTRPPRLPRPRPRPTPSPRP,0.563
18,RRIRLRPPRLPRPRPRPDWQPRP,-0.0564
19,RRIRQRPPRLPRPRPRPFWNPRP,-0.00884
20,RRIRFRPPRLPRPRPRPKPGPRP,0.446

row,Sequence,shrunken log2 fold change
1,RRIRERPPRLPRPRPRPCQYPRP,-0.138
2,RRIRERPPRLPRPRPRPELDPRP,0.0389
3,RRIRYRPPRLPRPRPRPDLFPRP,0.108
4,RRIRSRPPRLPRPRPRPFKCPRP,-0.226
5,RRIRYRPPRLPRPRPRPAGGPRP,0.148
6,RRIRLRPPRLPRPRPRPKIRPRP,-0.128
7,RRIRFRPPRLPRPRPRPWYTPRP,-0.38
8,RRIRSRPPRLPRPRPRPFCTPRP,-0.375
9,RRIRQRPPRLPRPRPRPTAFPRP,0.321
10,RRIRLRPPRLPRPRPRPLDRPRP,0.25
11,RRIRDRPPRLPRPRPRPSSDPRP,0.412
12,RRIRDRPPRLPRPRPRPDGRPRP,0.655
13,RRIRMRPPRLPRPRPRPNGFPRP,0.207
14,RRIRQRPPRLPRPRPRPLFIPRP,-0.673
15,RRIRDRPPRLPRPRPRPEKGPRP,0.71
16,RRIRWRPPRLPRPRPRPHWDPRP,-0.0409
17,RRIRRRPPRLPRPRPRPVYLPRP,-0.173
18,RRIRDRPPRLPRPRPRPYSYPRP,-0.0279
19,RRIRIRPPRLPRPRPRPSNSPRP,-1.13
20,RRIRERPPRLPRPRPRPSVVPRP,-0.213

row,Sequence,shrunken log2 fold change
1,RRIRIRPPRLPRPRPRPAPSPRP,0.444
2,RRIRPRPPRLPRPRPRPYLGPRP,3.16
3,RRIRSRPPRLPRPRPRPSANPRP,-0.0142
4,RRIRVRPPRLPRPRPRPFHDPRP,-0.0143
5,RRIRLRPPRLPRPRPRPHQTPRP,0.001
6,RRIRPRPPRLPRPRPRPGILPRP,-0.557
7,RRIRGRPPRLPRPRPRPGMTPRP,0.792
8,RRIRTRPPRLPRPRPRPDEMPRP,-0.023
9,RRIRVRPPRLPRPRPRPMACPRP,-0.147
10,RRIRARPPRLPRPRPRPIREPRP,-0.018
11,RRIRPRPPRLPRPRPRPQMEPRP,0.0168
12,RRIRGRPPRLPRPRPRPDQYPRP,-0.212
13,RRIRVRPPRLPRPRPRPFPTPRP,0.756
14,RRIRERPPRLPRPRPRPSWDPRP,-0.247
15,RRIRNRPPRLPRPRPRPHDMPRP,-0.137
16,RRIRMRPPRLPRPRPRPPHFPRP,1.03
17,RRIRGRPPRLPRPRPRPCRDPRP,0.128
18,RRIRFRPPRLPRPRPRPSRTPRP,0.0872
19,RRIRMRPPRLPRPRPRPSGHPRP,0.0431
20,RRIRMRPPRLPRPRPRPNWSPRP,-0.18
